Tests used:
Assay in all cases: cell-based or functional assay
[1] = target: human DOP receptor (human) (UniProt P41143)
[2] = target: human KOP receptor (human) (UniProt P41145)
[3] = target: human MOP receptor (human) (UniProt P35372)
[4] = target: human NOP recombinant receptor (N/OFQ peptide receptor) (human) (UniProt P41146)
[5] = target: native mouse NOP receptor (mouse vas deferens) (mouse) (UniProt P35377)
Chain of native mouse NOP receptor (mouse vas deferens) (mouse) (P35377 whole entry): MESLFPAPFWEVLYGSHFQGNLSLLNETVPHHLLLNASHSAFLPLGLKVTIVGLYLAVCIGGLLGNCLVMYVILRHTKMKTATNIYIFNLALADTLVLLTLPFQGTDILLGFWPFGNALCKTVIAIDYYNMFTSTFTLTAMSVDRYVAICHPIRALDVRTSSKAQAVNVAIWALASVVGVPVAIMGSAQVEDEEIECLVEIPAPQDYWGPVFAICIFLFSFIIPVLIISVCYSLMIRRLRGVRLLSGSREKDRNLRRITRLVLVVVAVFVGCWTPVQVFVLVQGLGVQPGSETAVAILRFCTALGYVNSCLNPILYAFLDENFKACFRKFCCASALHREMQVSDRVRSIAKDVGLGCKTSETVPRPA

Chain of human DOP receptor (human) (P41143 whole entry): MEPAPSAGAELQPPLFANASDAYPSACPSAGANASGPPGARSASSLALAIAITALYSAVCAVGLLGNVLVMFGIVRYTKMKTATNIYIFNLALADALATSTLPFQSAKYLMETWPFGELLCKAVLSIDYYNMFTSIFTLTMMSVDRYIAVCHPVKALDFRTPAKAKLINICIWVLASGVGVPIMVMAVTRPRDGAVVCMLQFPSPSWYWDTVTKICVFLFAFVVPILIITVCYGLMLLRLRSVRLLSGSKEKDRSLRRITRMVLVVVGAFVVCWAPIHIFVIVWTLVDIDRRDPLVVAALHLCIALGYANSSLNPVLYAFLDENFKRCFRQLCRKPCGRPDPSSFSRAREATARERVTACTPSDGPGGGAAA
Chain of human MOP receptor (human) (P35372 whole entry): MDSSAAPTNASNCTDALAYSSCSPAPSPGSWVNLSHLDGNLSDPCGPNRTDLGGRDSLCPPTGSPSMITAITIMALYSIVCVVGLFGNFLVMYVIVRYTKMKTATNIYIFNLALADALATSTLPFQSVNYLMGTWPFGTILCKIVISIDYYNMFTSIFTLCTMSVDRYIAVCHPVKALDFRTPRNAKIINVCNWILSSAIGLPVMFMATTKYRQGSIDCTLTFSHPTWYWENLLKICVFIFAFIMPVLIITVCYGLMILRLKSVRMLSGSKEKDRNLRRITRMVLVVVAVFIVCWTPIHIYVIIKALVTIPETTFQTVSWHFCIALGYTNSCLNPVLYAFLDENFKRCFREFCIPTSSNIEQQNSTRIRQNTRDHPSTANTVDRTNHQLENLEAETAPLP
Chain of human KOP receptor (human) (P41145 whole entry): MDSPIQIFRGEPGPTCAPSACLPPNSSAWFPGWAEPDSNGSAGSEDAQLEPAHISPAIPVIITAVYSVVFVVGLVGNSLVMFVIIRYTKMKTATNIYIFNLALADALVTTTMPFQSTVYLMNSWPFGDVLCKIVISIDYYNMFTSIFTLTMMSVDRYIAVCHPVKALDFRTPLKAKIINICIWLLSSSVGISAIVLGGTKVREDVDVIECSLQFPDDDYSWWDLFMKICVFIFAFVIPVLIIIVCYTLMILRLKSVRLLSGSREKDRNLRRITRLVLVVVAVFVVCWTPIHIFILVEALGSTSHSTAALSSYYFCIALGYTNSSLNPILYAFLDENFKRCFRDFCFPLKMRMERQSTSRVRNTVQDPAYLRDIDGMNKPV
Chain of human NOP recombinant receptor (N/OFQ peptide receptor) (human) (P41146 whole entry): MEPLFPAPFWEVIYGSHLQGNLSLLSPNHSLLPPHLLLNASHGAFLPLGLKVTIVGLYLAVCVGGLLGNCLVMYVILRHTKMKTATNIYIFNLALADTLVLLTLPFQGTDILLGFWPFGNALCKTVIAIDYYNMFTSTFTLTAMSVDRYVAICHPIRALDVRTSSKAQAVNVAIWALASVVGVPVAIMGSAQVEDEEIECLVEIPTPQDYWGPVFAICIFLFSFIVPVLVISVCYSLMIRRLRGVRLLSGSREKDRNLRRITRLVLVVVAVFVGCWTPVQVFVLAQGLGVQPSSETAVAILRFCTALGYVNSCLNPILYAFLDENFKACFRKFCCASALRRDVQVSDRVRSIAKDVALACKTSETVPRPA

| Substance | calcium mobilization, maximal effects [1] [%] | calcium mobilization, pEC50 (pEC50 (-log10 M)) [1] | calcium mobilization, potency [2] [µM] | calcium mobilization, potency [3] [µM] | calcium mobilization, potency [4] [µM] | calcium mobilization, potency [1] [µM] | electrically stimulated mouse vas deferens, Emax (% inhibition of control twitch) [5] | electrically stimulated mouse vas deferens, pEC50 (pEC50 (-log10 M)) [5] | mouse vas deferens from NOP(+/+) mice, Emax [5] [%] | mouse vas deferens from NOP(+/+) mice, pEC50 (pEC50 (-log10 M)) [5] | calcium mobilization, maximal effects [3] [%] | calcium mobilization, pEC50 (pEC50 (-log10 M)) [3] |
| --- | --- | --- | --- | --- | --- | --- | --- | --- | --- | --- | --- | --- |
| DPDPE (peptide) | 86 | 9.57 | > 1 | > 1 | > 1 |  |  |  |  |  |  |  |
| PWT2-N/OFQ (supramolecular aggregate of the PWT2 maleimido core with [Cys18]N/OFQ-NH2) (from UniProt Q13519 20-176) |  |  | > 1 | > 1 |  | > 1 | 93 | 7.78 | 91 | 7.92 |  |  |
| dermorphin (peptide) |  |  | > 1 |  | > 1 | > 1 |  |  |  |  | 135 |  |
| dynorphin A (from UniProt P01213 207-223) (peptide) |  |  |  |  | > 1 |  |  |  |  |  |  | 6.67 |
| nociceptin/orphanin FQ (N/OFQ) peptide (from UniProt Q13519 20-176) |  |  | > 1 | > 1 |  | > 1 | 88 | 7.37 | 92 | 7.68 |  |  |

From US9962447
